Reference: the Human Domainome abundance scans (Beltran et al. 2025)

B1: Tyrosine-protein kinase BTK, residues 215 to 273; numbered along this chain, Q06187 (parent)
chain: ELKKVVALYDYMPMNANDLQLRKGDEYFILEESNLPWWRARDKNGQEGYIPSNYVTEAE

Variants of: B1
Test: abundance fitness (aPCA) (normalised: wild type 0, dead -1); higher = more abundant; growth selection in yeast, the domain comes from the species named
Details: Homo sapiens

Abundance fitness of substitutions, site by site:
G45: A -0.073, Y -0.062, L -0.08, S -0.125, Q -0.144, W -0.224, V -0.641, N 0.008, F -0.173, I -0.809, K -0.125, D -0.057, T -0.425, R -0.16, P -1.05, E -0.156, C -0.162, H -0.118
W37: M 0.006, E 0.011, P -0.227, F -0.011, D -0.129, K 0.027, I -0.097, V 0.013, G -0.134, Y -0.018, T 0.036, H 0.014, C 0.029, A -0.03, Q 0.021, S -0.017, L -0.014
K43: N -0.018, A 0.031, P -0.098, S -0.016, I 0.049, H -0.026, D -0.094, G 0.004, F -0.11, T -0.016, Q 0.009, L -0.029, C -0.033, R -0.033, M 0.021, V -0.001, E -0.005
E32: P -0.007, F -0.173, R -0.038, K -0.133, A 0.016, I -0.202, Q 0.028, H -0.114, Y -0.083, M -0.082, T -0.013, V 0.014, N -0.055, W -0.09, S -0.018
W38: N -0.098, G -0.22, T -0.009, L -0.005, P -0.038, V 0.022, F -0.031, Y 0.044, D -0.157, K -0.008, S 0.042, H -0.029, C -0.027, A -0.017, M 0.017, Q -0.019
S33: L -0.06, K 0.009, G -0.019, T 0.005, C -0.039, Y -0.065, W -0.072, M -0.02, E -0.038, V -0.054, Q 0.016, A 0.026, D -0.088, F -0.015, R -0.07, H -0.087, P 0.006
Y49: L 0.003, I 0.001, T -0.019, C -0.024, D -0.032, A -0.037, V -0.018, Q 0.064, P -0.374, M 0.023, E -0.088, W -0.026, S -0.046, F -0.033, K -0.056, R 0.04, H -0.074
N34: D 0.073, Q 0.118, E 0.037, A 0.026, R -0.002, G 0.07, W -0.032, V 0.065, P 0.031, C 0.046, S 0.033, L 0.033, Y -0.102, H -0.066, T 0.029, M 0.014
A40: K -1.07, Q -0.758, I -0.266, E -0.965, L -0.181, V -0.047, W -1.02, H -0.674, N -0.981, D -0.952, P -1.16, C -0.121, Y -0.734, R -0.825, M -0.334, S -0.298, G -0.047, T -0.456, F -0.892
D42: L -0.81, S -0.07, H -0.321, K -0.575, R -0.673, P -0.936, Y -0.889, A 0.017, N -0.081, T -0.065, M -0.498, E -0.23, F -0.843, G -0.103, C -0.119, I -0.995
G48: H -0.856, T -0.886, V -0.92, M -0.946, P -0.68, I -1.13, Y -0.968, W -1.02, K -0.8, A -0.825, L -0.993, S -0.862, Q -0.845, D -0.791, F -0.725, E -0.895, N -0.97, R -0.827, C -0.793
R39: Y -0.171, A -0.179, V -0.065, T -0.111, K -0.064, F -0.069, G -0.36, C -0.181, P -0.187, H -0.116, L -0.062, Q -0.031, W -0.042, S -0.089, E -0.199
P51: D -0.196, L -0.056, C -0.126, I -0.581, A -0.216, H -0.04, G -0.286, K -0.106, F -0.054, E -0.373
E31: P -0.162, V -0.119, S 0.05, W -0.105, T -0.04, R -0.028, Q 0.072
Q46: I 0.047, N 0.007, S -0.065, E -0.005, M -0.053, C 0.029, D -0.077, W -0.161, R -0.016, L -0.014, F -0.028, P -0.616, T -0.048, G -0.036, H 0.04, V 0.044, Y -0.127, A 0.014
I50: S -1.05, K -1.02, G -0.876, L -0.043, R -1.01, V -0.014, H -0.592, F -0.121, N -0.92, Y -0.757, M -0.291, E -0.95, Q -1.2
R41: Y -0.234, T -0.097, D -1.08, V -0.132, C -0.027, N -0.674, L -0.072, F -0.142, E -0.305, G -0.317, Q -0.006, W -0.19, I -0.158, S -0.108, A -0.111, M -0.003, P -0.976
P36: Y -0.148, C -0.072, V -0.077, T -0.1, I -0.294, K 0.011, F -0.437, A 0.012, S -0.013, Q 0.002, L -0.094, W -0.17, G -0.089, N -0.075, D -0.013, E -0.024, R -0.029
E47: A -0.086, Y -0.268, P -0.473, H -0.219, T -0.061, F -0.235, N -0.115, I -0.142, K -0.107, W -0.104, D -0.011, G -0.451, L -0.163, V -0.05, R -0.244, M -0.156, Q -0.113
L35: K -0.039, F 0.012, C -0.082, S -0.041, N -0.06, E -0.022, I 0.005, W -0.015, M -0.028, H -0.002, Q -0.012, P 0, A -0.08, D 0.05, R -0.006, V -0.017
N44: L -0.023, D -0.01, H -0.063, T 0.029, V -0.054, E -0.009, R -0.067, C -0.019, I 0.036, K 0.07, F -0.026, S -0.05, G 0.017, M -0.061, Q -0.016, A -0.041, W -0.056
